From PMC9482650, “Quantitative fragmentomics allow affinity mapping of interactomes” (Nature Communications, 2022)
Blank lines part the entries; values can stand above or below the binder they belong to.

Tests used:
Assay in all cases: holdup assay
Design in all cases: key: below the threshold = too weak to quantify, mostly under pKd 3.1 to 4
APBA2_2, Q99767 = target: T1, APBA2_2, Q99767
T1 sequence (Q99767 654-744, limits assumed, looked up): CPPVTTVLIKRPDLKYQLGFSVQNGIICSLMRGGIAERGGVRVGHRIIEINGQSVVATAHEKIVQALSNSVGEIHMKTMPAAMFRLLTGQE

RAPGEF6, Q8TEU7 = target: T2, RAPGEF6, Q8TEU7
T2 sequence (Q8TEU7 525-625, limits assumed, looked up): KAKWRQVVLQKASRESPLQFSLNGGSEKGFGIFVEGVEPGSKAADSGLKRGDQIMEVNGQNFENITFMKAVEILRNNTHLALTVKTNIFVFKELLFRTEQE

PDZD2_2, O15018 = target: T3, PDZD2_2, O15018
T3 sequence (O15018 329-429, limits assumed, looked up): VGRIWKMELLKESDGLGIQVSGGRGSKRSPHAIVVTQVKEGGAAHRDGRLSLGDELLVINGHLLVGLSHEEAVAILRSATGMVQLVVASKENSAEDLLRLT

SNTB1, Q13884 = target: T4, SNTB1, Q13884
T4 sequence (Q13884 107-205, limits assumed, looked up): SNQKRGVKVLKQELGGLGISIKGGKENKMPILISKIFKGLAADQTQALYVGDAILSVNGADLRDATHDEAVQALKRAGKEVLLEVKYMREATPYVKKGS

GRIP2_6, Q9C0E4 = target: GRIP2_6, Q9C0E4
GRIP2_6, Q9C0E4, sequence (Q9C0E4 648-740): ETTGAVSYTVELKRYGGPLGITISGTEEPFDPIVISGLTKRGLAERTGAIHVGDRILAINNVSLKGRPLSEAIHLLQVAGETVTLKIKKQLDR

DVL3, Q92997 = target: T5, DVL3, Q92997
T5 sequence (Q92997 244-331, limits assumed, looked up): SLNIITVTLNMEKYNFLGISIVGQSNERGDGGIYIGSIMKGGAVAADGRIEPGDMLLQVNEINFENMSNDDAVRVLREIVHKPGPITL

IL16_3, Q14005 = target: IL16_3, Q14005
IL16_3, Q14005, sequence (Q14005 1107-1207): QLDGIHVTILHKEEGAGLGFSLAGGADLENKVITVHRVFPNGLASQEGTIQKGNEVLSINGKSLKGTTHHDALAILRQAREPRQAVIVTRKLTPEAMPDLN

DLG1_1, Q12959 = target: DLG1_1, Q12959
MPDZ_10, O75970 = target: T6, MPDZ_10, O75970
T6 sequence (O75970 1624-1722, limits assumed, looked up): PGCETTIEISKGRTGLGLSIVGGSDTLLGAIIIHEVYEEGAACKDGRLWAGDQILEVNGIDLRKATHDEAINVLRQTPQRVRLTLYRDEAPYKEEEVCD

TJP2_1, Q9UDY2 = target: TJP2_1, Q9UDY2
TJP2_1, Q9UDY2, sequence (Q9UDY2 24-128): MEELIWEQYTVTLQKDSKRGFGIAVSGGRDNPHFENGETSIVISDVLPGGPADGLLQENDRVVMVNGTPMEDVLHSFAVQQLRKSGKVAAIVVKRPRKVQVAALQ

GRASP, Q7Z6J2 = target: GRASP, Q7Z6J2
GRASP, Q7Z6J2, sequence (Q7Z6J2 96-193): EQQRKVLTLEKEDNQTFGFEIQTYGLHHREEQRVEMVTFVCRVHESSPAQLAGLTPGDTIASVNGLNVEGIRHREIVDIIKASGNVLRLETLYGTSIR

HTRA1, Q92743 = target: HTRA1, Q92743
HTRA1, Q92743, sequence (Q92743 360-477): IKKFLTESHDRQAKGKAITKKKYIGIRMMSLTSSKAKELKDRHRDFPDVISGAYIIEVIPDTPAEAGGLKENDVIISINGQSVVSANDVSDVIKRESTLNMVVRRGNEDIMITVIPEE

NHERF4_1, Q86UT5-2 = target: NHERF4_1, Q86UT5-2
NHERF4_1, Q86UT5-2, sequence (Q86UT5 other isoform, or with tags, fused parts or gaps): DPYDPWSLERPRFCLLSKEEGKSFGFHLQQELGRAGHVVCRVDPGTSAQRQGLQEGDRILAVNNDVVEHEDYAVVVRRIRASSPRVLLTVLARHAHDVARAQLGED

IL16_4, Q14005 = target: IL16_4, Q14005
IL16_4, Q14005, sequence (Q14005 1229-1329): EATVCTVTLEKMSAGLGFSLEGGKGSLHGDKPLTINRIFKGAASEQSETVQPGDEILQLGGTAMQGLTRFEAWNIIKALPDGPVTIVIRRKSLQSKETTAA

SCRIB_2, Q14160 = target: SCRIB_2, Q14160
SCRIB_2, Q14160, sequence (Q14160 857-960): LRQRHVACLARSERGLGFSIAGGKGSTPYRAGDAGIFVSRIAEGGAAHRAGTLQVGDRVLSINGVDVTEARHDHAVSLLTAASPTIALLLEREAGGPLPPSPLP

ARHGEF11, O15085 = target: T7, ARHGEF11, O15085
T7 sequence (O15085 42-136, limits assumed, looked up): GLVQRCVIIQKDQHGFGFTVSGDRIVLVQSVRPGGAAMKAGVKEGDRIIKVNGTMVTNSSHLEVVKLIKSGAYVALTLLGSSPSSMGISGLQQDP

DLG5_1, Q8TDM6 = target: DLG5_1, Q8TDM6
DLG5_1, Q8TDM6, sequence (Q8TDM6 617-713): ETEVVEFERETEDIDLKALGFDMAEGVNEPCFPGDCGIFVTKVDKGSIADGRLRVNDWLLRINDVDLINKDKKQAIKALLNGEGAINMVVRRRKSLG

LIMK2, P53671 = target: LIMK2, P53671
LIMK2, P53671, sequence (P53671 143-248): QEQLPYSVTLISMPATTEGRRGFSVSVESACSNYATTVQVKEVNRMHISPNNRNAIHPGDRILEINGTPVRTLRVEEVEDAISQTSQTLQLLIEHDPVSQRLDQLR

SCRIB_3, Q14160 = target: SCRIB_3, Q14160
SCRIB_3, Q14160, sequence (Q14160 999-1103): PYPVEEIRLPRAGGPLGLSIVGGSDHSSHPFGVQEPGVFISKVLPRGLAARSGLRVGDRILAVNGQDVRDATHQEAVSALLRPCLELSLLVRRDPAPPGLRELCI

SNX27, Q96L92 = target: SNX27, Q96L92
TJP1_2, Q07157 = target: TJP1_2, Q07157
TJP1_2, Q07157, sequence (Q07157 181-274): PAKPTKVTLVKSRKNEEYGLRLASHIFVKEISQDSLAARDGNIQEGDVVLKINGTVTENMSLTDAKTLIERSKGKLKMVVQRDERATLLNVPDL

MPP6, Q9NZW5 = target: T8, MPP6, Q9NZW5
T8 sequence (Q9NZW5 125-219, limits assumed, looked up): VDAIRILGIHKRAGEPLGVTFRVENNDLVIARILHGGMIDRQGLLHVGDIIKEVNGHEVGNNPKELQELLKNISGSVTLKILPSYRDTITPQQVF

DFNB31_2, Q9P202 = target: T9, DFNB31_2, Q9P202
T9 sequence (Q9P202 274-371, limits assumed, looked up): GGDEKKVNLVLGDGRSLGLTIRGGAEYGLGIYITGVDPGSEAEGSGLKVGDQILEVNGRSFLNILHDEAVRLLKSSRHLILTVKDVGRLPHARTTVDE

GRIP2_3, Q9C0E4 = target: GRIP2_3, Q9C0E4
GRIP2_3, Q9C0E4, sequence (Q9C0E4 238-339): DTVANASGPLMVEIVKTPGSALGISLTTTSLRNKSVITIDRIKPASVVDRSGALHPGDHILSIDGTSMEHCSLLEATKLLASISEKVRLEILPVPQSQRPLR

APBA2_1, Q99767 = target: T10, APBA2_1, Q99767
T10 sequence (Q99767 563-664, limits assumed, looked up): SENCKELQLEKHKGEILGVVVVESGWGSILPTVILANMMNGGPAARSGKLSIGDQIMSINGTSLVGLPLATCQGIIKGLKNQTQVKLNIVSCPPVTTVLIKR

LNX2_3, Q8N448 = target: T11, LNX2_3, Q8N448
T11 sequence (Q8N448 463-564, limits assumed, looked up): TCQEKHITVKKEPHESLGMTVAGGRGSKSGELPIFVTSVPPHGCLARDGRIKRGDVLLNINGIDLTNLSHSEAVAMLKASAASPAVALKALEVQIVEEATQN

[1] = plain residues with an end cap or a label only (N-terminal biotin on a linker: ado-ado)
[2] = plain residues with an end cap or a label only (N-terminal biotin on a linker: ahx)

pKd (APBA2_2, Q99767; [1]): below the threshold
pKd (RAPGEF6, Q8TEU7; [1]): below the threshold
pKd (PDZD2_2, O15018; [1]): below the threshold
pKd (SNTB1, Q13884; [1]): below the threshold
pKd (GRIP2_6, Q9C0E4; [1]): below the threshold
pKd (DVL3, Q92997; [1]): below the threshold
pKd (IL16_3, Q14005; [1]): below the threshold
pKd (DLG1_1, Q12959; [1]): below the threshold
pKd (MPDZ_10, O75970; [1]): below the threshold
pKd (TJP2_1, Q9UDY2; [1]): below the threshold
pKd (GRASP, Q7Z6J2; [1]): 4
pKd (HTRA1, Q92743; [1]): below the threshold
pKd (NHERF4_1, Q86UT5-2; [1]): 3.98
pKd (IL16_4, Q14005; [1]): below the threshold
pKd (SCRIB_2, Q14160; [1]): below the threshold
pKd (ARHGEF11, O15085; [1]): below the threshold
pKd (DLG5_1, Q8TDM6; [1]): below the threshold
pKd (LIMK2, P53671; [1]): below the threshold
pKd (SCRIB_3, Q14160; [1]): below the threshold
pKd (SNX27, Q96L92; [1]): below the threshold
pKd (TJP1_2, Q07157; [1]): below the threshold
pKd (MPP6, Q9NZW5; [1]): 3.63
pKd (DFNB31_2, Q9P202; [1]): below the threshold
pKd (GRIP2_3, Q9C0E4; [1]): below the threshold
pKd (APBA2_1, Q99767; [1]): below the threshold
pKd (LNX2_3, Q8N448; [1]): below the threshold
B1: TRIM50, Q86XT4 (peptide)
chain: PLSPEQPTKL

pKd (APBA2_2, Q99767; [2]): below the threshold
pKd (RAPGEF6, Q8TEU7; [2]): below the threshold
pKd (PDZD2_2, O15018; [2]): below the threshold
pKd (SNTB1, Q13884; [2]): below the threshold
pKd (GRIP2_6, Q9C0E4; [2]): below the threshold
pKd (DVL3, Q92997; [2]): below the threshold
pKd (IL16_3, Q14005; [2]): below the threshold
pKd (DLG1_1, Q12959; [2]): below the threshold
pKd (MPDZ_10, O75970; [2]): below the threshold
pKd (TJP2_1, Q9UDY2; [2]): below the threshold
pKd (GRASP, Q7Z6J2; [2]): below the threshold
pKd (HTRA1, Q92743; [2]): below the threshold
pKd (NHERF4_1, Q86UT5-2; [2]): below the threshold
pKd (IL16_4, Q14005; [2]): below the threshold
pKd (SCRIB_2, Q14160; [2]): below the threshold
pKd (ARHGEF11, O15085; [2]): below the threshold
pKd (DLG5_1, Q8TDM6; [2]): below the threshold
pKd (LIMK2, P53671; [2]): below the threshold
pKd (SCRIB_3, Q14160; [2]): below the threshold
pKd (SNX27, Q96L92; [2]): below the threshold
pKd (TJP1_2, Q07157; [2]): below the threshold
pKd (MPP6, Q9NZW5; [2]): below the threshold
pKd (DFNB31_2, Q9P202; [2]): below the threshold
pKd (GRIP2_3, Q9C0E4; [2]): below the threshold
pKd (APBA2_1, Q99767; [2]): below the threshold
pKd (LNX2_3, Q8N448; [2]): below the threshold
B2: NHERF2, Q15599 (peptide)
chain: NRKREIFSNF
